# T1: Human ST2 (human, UniProt Q01638 19-328, limits assumed)
# T1 construct: also called human ST2 protein; Interleukin 1 receptor-like 1
# T1 sequence (looked up): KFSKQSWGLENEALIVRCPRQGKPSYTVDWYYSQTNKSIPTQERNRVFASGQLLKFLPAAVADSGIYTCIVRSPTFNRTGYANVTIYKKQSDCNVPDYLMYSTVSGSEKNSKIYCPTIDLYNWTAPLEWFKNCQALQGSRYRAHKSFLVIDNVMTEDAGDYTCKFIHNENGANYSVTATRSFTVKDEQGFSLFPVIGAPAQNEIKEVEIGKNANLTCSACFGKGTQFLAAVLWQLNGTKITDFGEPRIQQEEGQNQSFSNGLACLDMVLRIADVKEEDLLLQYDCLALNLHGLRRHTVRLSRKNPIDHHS
# Biological target: T1, Human ST2
# Assay: SPR (Carterra), antibody immobilized, ST2 analyte
# Method: Binding of the reformatted human ST2 antibodies to the human and mouse ST2 proteins was evaluated by surface plasmon resonance (SPR), using a high throughput antibody screening and characterization platform from Carterra (Salt Lake City, Utah).
Kd [nM],koff [s⁻¹],kon [M⁻¹ s⁻¹],Binder
229,0.11,500000,"Human ST2 IgG1 Antibody 2 (antibody, V domains shown, IgG1; also called ST2 Antibody 2) VH: QVQLVQSGAEVKKPGSSVKVSCKASGYTFSDYYVHWVRQAPGQGLEWMGGIIPIVGTANYAQKFQGRVTITADESTSTAYMELSSLRSEDTAVYYCARAGGGDYKSYYFDYWGRGTLVTVSS VL: not shown"
201,0.04,200000,"Human ST2 IgG1 Antibody 13 (antibody, V domains shown, IgG1; also called ST2 Antibody 13) VH: QVQLVQSGAEVKKPGSSVKVSCKASGYTFTDYYMHWVRQAPGQGLEWMGGIMPLFGTIKYAQELQGRVTITADESTSTAYMELSSLRSEDTAVYYCARGRVGATDYWGQGTLVTVSS VL: not shown"
25,0.019,780000,"Human ST2 IgG1 Antibody 11 (antibody, V domains shown, IgG1; also called ST2 Antibody 11) VH: QVQLVQSGAEVKKPGASVKVSCKASGGTFSSYAISWVRQAPGQGLEWMGWINPNSGGTNYAQKFQGRVTMTRDTSTSTVYMELSSLRSEDTAVYYCAMDTNYYYGMDVWGQGTTVTVSS VL: DIQMTQSPSSLSASVGDRVTITCQASEDIANNLNWYQQKPGKAPKLLIYAASSLQSGVPSRFSGSGSGTDFTLTISSLQPEDFATYYCQQGYNIPFTFGQGTKLEIKR"
12,0.0025,210000,"Human ST2 IgG1 Antibody 4 (antibody, V domains shown, IgG1; also called ST2 Antibody 4) VH: QVQLVQSGAEVKKPGSSVKVSCKASGGTFSTFGVSWVRQAPGQGLEWMGRIIPILATTNYAQKFQGRVTITADESTSTAYMELSSLRSEDTAVYYCASGDYYDSSGYYGYFQHWGQGTLVTVSS VL: EIVMTQSPATLSVSPGERATLSCRASQSVSSSYLAWYQQKPGQAPRLLIYGASTRATGIPARFSGSGSGTEFTLTISSLQSEDFAVYYCQQSYSIPFTFGQGTKLEIKR"
617,0.072,120000,"Human ST2 IgG1 Antibody 1 (antibody, V domains shown, IgG1; also called ST2 Antibody 1) VH: QVQLVQSGAEVKKPGSSVKVSCKASGGTFSSYAISWVRQAPGQGLEWMGGIIPIFGTANYAQKFQGRVTITADESTSTAYMELSSLRSEDTAVYYCAKSILGGRIFGGYFDLWGRGTLVTVSS VL: DIVMTQSPLSLPVTPGEPASISCRSSQSLLHSNGYNYLDWYLQKPGQSPQLLIYAASSLQSGVPDRFSGSGSGTDFTLKISRVEAEDVGVYYCMQALQTPPTFGQGTKVEIKR"
153,0.017,110000,"Human ST2 IgG1 Antibody 8 (antibody, V domains shown, IgG1; also called ST2 Antibody 8) VH: QVQLVQSGAEVKKPGASVKVSCKASGGTFSSYAISWVRQAPGQGLEWMGWISPDNGNTNYAQKLQGRVTMTRDTSTSTVYMELSSLRSEDTAVYYCARLAYDTGYYYYYYMDVWGKGTTVTVSS VL: DIVMTQSPLSLPVTPGEPASISCRSSQSLLHSNGYNYLDWYLQKPGQSPQLLIYAASTLQSGVPDRFSGSGSGTDFTLKISRVEAEDVGVYYCMQGTHWPLTFGQGTKVEIKR"
131,0.079,600000,"Human ST2 IgG1 Antibody 10 (antibody, V domains shown, IgG1; also called ST2 Antibody 10) VH: QVQLVQSGAEVKKPGSSVKVSCKASGGTFGYYAISWVRQAPGQGLEWMGGIIPMVGTGQYAQEFQGRVTITADESTSTAYMELSSLRSEDTAVYYCAGVEVGATRGYFQHWGQGTLVTVSS VL: DIVMTQSPLSLPVTPGEPASISCRSSQSLLHSNGYNYLDWYLQKPGQSPQLLIYAASTLQSGVPDRFSGSGSGTDFTLKISRVEAEDVGVYYCMQGTHWPTTFGQGTRLEIKR"
42,0.017,400000,"Human ST2 IgG1 Antibody 14 (antibody, V domains shown, IgG1; also called ST2 Antibody 14) VH: QVQLVQSGAEVKKPGSSVKVSCKASGYTFTSYGISWVRQAPGQGLEWMGGIIPIFGTANYAPRFQGRVTITADESTSTAYMELSSLRSEDTAVYYCARDTVSMDVWGQGTTVTVSS VL: DIVMTQSPLSLPVTPGEPASISCRSSQSLLHSNGYNYLDWYLQKPGQSPQLLIYDASNLETGVPDRFSGSGSGTDFTLKISRVEAEDVGVYYCMQGAHWPPTFGQGTKLEIKR"
15,0.0044,290000,"Human ST2 IgG1 Antibody 7 (antibody, V domains shown, IgG1; also called ST2 Antibody 7) VH: QVQLVQSGAEVKKPGASVKVSCKASGYTFTDSYIHWVRQAPGQGLEWMGWMNPNSGNTGYAQKFQGRVTMTRDTSTSTVYMELSSLRSEDTAVYYCARGVFDYGDYGYYYHYMDVWGKGTTVTVSS VL: DIVMTQSPLSLPVTPGEPASISCRSSQSLLHSNGYNYLDWYLQKPGQSPQLLIYGASTLQPGVPDRFSGSGSGTDFTLKISRVEAEDVGVYYCMQGTQWPTFGQGTKLEIKR"
1100,0.11,95000,"Human ST2 IgG1 Antibody 18 (antibody, V domains shown, IgG1; also called ST2 Antibody 18) VH: QVQLVQSGAEVKKPGSQVKVSCKASGYTFTSFGISWVRQAPGQGLEWLGGIIPTLGTANYAQKFQGRVTITADDSTSTAYMELSSLRSEDTAVYYCAGGAAAGPDKYYGMDVWGQGTTVTVSS VL: not shown"
146,0.042,290000,"Human ST2 IgG1 Antibody 3 (antibody, V domains shown, IgG1; also called ST2 Antibody 3) VH: QVQLVQSGAEVKKPGSSVKVSCKASGGTFSSYAFSWVRQAPGQGLEWMGGIIPIFGTPNYAQKFQGRVTITADESTSTAYMELSSLRSEDTAVYYCARVRAKRPNWYFDLWGRGTLVTVSS VL: not shown"
769,0.14,190000,"Human ST2 IgG1 Antibody 15 (antibody, V domains shown, IgG1; also called ST2 Antibody 15) VH: QVQLVQSGAEVKKPGSSVKVSCKASGGTFSSYAISWVRQAPGQGLEWMGGIIPMFGTTNYAQKFQGRVTITADESTSTAYMELSSLRSEDTAVYYCATVAAAGPNWYFDLWGRGTLVTVSS VL: DIQMTQSPSSLSASVGDRVTITCQASQGISNYLNWYQQKPGKAPKLLIYAASTLQSGVPSRFSGSGSGTDFTLTISSLQPEDFATYYCQQSYSTPPTFGQGTKVEIKR"
81,0.065,810000,"Human ST2 IgG1 Antibody 20 (antibody, V domains shown, IgG1; also called ST2 Antibody 20) VH: EVQLLESGAEVKKPGSSVKVSCKASGGTFSSYAISWVRQAPGQGLEWMGGIIPIFGTANYAQKFQGRVTITADESTSTAYMELSSLRSEDTAVYYCASGFYSNDLYYYYYMDVWGKGTTVTVSS VL: DIQMTQSPSSLSASVGDRVTITCRASQSISSWLAWYQQKPGKAPKLLIYDASNLKTGVPSRFSGSGSGTDFTLTISSLQPEDFATYYCQQTYAIPLTFGGGTKVEIKR"
96,0.056,580000,"Human ST2 IgG1 Antibody 16 (antibody, V domains shown, IgG1; also called ST2 Antibody 16) VH: QVQLVQSGAEVKKPGASVKVSCKASGYTFTSHYMHWVRQAPGQGLEWMGIINPSGGSTSYAQKFQGRVTMTRDTSTSTVYMELSSLRSEDTAVYYCARAGIGYLAAHDLYYYYGMDVWGRGTLVTVSS VL: EIVMTQSPATLSVSPGERATLSCRASQSVSSNFAWYQQKPGQAPRLLIYGASTRATGIPARFSGSGSGTEFTLTISSLQSEDFAVYYCQQYYSTPYTFGQGTKVEIKR"
190,0.048,250000,"Human ST2 IgG1 Antibody 5 (antibody, V domains shown, IgG1; also called ST2 Antibody 5) VH: EVQLLESGGGLVQPGGSLRLSCAASGFTFSSYWMSWVRQAPGKGLEWVSSISSDTTYKYYADSVKGRFTISRDNSKNTLYLQMNSLRAEDTAVYYCAREVDTAMKNWGQGTLVTVSS VL: DIQMTQSPSSLSASVGDRVTITCRASQGIGNDLAWYQQKPGKAPKLLIYAASSLQSGVPSRFSGSGSGTDFTLTISSLQPEDFATYYCQQSYSTPYTFGQGTKVEIKR"
217,0.024,110000,"Human ST2 IgG1 Antibody 12 (antibody, V domains shown, IgG1; also called ST2 Antibody 12) VH: QVQLVQSGAEVKKPGASVKVSCKASGYTFTGYYMHWVRQAPGQGLEWMGIIDPSGGGTSYAQKFQGRVTMTRDTSTSTVYMELSSLRSEDTAVYYCAKDIVVVPAAIANYYYGMDVWGQGTTVTVSS VL: DIQMTQSPSSLSASVGDRVTITCRVSQGISNYLNWYQQKPGKAPKLLIYGASTLQSGVPSRFSGSGSGTDFTLTISSLQPEDFATYYCQQSYSTPWTFGPGTKVDIKR"
293,0.036,120000,"Human ST2 IgG1 Antibody 9 (antibody, V domains shown, IgG1; also called ST2 Antibody 9) VH: EVQLLESGGGLVQPGGSLRLSCAASGFAFSSHWMHWVRQAPGKGLEWVATISSGSHSIHYADSVKGRFTISRDNSKNTLYLQMNSLRAEDTAVYYCAREAGTSYYYYGMDVWGKGTTVTVSS VL: DIQMTQSPSSLSASVGDRVTITCQASQDIRNYLNWYQQKPGKAPKLLIYKASSLESGVPSRFSGSGSGTDFTLTISSLQPEDFATYYCQQSYSTPPTFGGGTKVEIKR"
113,0.062,550000,"Human ST2 IgG1 Antibody 19 (antibody, V domains shown, IgG1; also called ST2 Antibody 19) VH: EVQLLESGGGLVQPGGSLRLSCAASGFSFSHAWMSWVRQAPGKGLEWVSVIHSGGSTFYADSVKGRFTISRDNSKNTLYLQMNSLRAEDTAVYYCARIGKGGGFDYWGQGTLVTVSS VL: DIQMTQSPSSLSASVGDRVTITCRASQDIGSWLAWYQQKPGKAPKLLIYAASSLQSGVPSRFSGSGSGTDFTLTISSLQPEDFATYYCQQSYSTPPTFGQGTKVEIKR"
433,0.033,76000,"Human ST2 IgG1 Antibody 17 (antibody, V domains shown, IgG1; also called ST2 Antibody 17) VH: QVQLVQSGAEVKKPGASVKVSCKASGYTFTDSFMFWVRQAPGQGLEWVGLINPGTGATIFAQKFQGRVTMTRDTSTSTVYMELSSLRSEDTAVYYCARSSDYDSSDYWGQGTLVTVSS VL: DIQMTQSPSSLSASVGDRVTITCRASQSISTWLAWYQQKPGKAPKLLIYGASSLQSGVPSRFSGSGSGTDFTLTISSLQPEDFATYYCQQSYNSPYTFGQGTKVEIKR"
166,0.057,340000,"Human ST2 IgG1 Antibody 6 (antibody, V domains shown, IgG1; also called ST2 Antibody 6) VH: EVQLLESGGGLVKPGGSLRLSCAASGFTFSSYWMSWVRQAPGKGLEWVSAIGGSGAGTYYADSVKGRFTISLDDSKNTLYLQMNSLKTEDTAVYYCARLSTVTRGFDYWGQGTLVTVSS VL: DIQMTQSPSSLSASVGDRVTITCRASQSISNWLAWYQQKPGKAPKLLIYSASSLQNGVPSRFSGSGSGTDFTLTISSLQPEDFATYYCQQSYSTPPTFGQGTKVEIKR"
